According to patent publication US20260285998 (published 2026):

T1: human BCMA (cell surface) (human)
T1 chain: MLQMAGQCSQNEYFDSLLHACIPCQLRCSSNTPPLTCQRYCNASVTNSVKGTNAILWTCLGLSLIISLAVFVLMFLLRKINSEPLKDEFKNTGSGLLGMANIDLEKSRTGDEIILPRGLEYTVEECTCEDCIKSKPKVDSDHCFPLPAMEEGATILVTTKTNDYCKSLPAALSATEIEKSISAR

T2: human BCMA-Fc (human)
T2 chain: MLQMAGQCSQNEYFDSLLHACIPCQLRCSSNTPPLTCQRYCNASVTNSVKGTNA

T3: human BCMA S30del (human)
T3 chain: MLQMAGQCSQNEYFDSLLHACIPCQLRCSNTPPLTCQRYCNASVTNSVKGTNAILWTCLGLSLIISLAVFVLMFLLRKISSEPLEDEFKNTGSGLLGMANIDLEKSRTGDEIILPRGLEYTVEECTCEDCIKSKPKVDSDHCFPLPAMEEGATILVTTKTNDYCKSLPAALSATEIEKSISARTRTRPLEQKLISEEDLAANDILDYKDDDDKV

T4: human BCMA R27P (human)
T4 chain: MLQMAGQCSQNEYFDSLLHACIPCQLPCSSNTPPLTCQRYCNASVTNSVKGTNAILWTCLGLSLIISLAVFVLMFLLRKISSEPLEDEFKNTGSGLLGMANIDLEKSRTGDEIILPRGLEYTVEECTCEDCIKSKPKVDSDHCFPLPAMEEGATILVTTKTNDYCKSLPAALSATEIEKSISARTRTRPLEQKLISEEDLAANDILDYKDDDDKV


Tests used:
[1] = target: T1, human BCMA (cell surface); assay: FACS
human BCMA-Fc = target: T2, human BCMA-Fc; assay: SPR, 25C
cynomolgus BCMA-Fc = cynomolgus BCMA-Fc (cynomolgus); assay: SPR, 25C
human BCMA S30del = target: T3, human BCMA S30del; assay: FACS
human BCMA R27P = target: T4, human BCMA R27P; assay: FACS

cynomolgus BCMA-Fc (cynomolgus), sequence (chain, as listed by the source): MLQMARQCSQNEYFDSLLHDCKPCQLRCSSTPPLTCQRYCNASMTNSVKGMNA

EC50 [1] [nM] | Kd (human BCMA-Fc) [nM] | Kd (cynomolgus BCMA-Fc) [nM] | Binder | other results
23.7 | – | – | P1AG7397 BCMA arm (antibody, V domains shown) VH: EVQLLESGGGLVQPGGSLRLSCAASGFTFSNAWMDWVRQAPGKGLEWVSQITAKSNNYATYYADSVKGRFTISRDNSKNTLYLQMNSLRAEDTAVYYCTDDGYHWGQGTLVTVSS VL: DIQMTQSPSSLSASVGDRVTITCRASEDIRNGLAWYQQKPGKAPKLLIYNANSLHTGVPSRFSGSGSGTDFTLTISSLQPEDFATYYCEDTSKYPYTFGQGTKLEIK | –
– | 3.4 | 1.7 | P1AG5067 (54_VH1a/VL1a_L1_pGL) (antibody, V domains shown) VH: EVQLVESGGGLVKPGGSLRLSCAASGFTFSNAWMDWVRQAPGKGLEWVGQITAKSNNYATYYAAPVKGRFTISRDDSKNTLYLQMNSLKTEDTAVYYCTDDGYHWGQGTLVTVSS VL: AIQMTQSPSSLSASVGDRVTITCRASEDIRNDLGWYQQKPGKAPKLLIYNANSLHTGVPSRFSGSGSGTDFTLTISSLQPEDFATYYCEDTSKYPYTFGQGTKLEIK | –
10.8 | – | – | P1AG7422 BCMA arm (antibody, V domains shown) VH: EVQLVESGGGLVKPGGSLRLSCAASGFTFSNAWMDWVRQAPGKGLEWIAQITAKSNNYATYYAAPVKGRFTISRDDSKNTLYLQMNSLKTEDTAVYYCTDDGYHWGQGTLVTVSS VL: AIQMTQSPSSLSASVGDRVTITCRASEDIRNGLAWYQQKPGKAPKLLIYNANSLHTGVPSRFSGSGSGTDFTLTISSLQPEDFATYYCEDTSKYPYTFGQGTKLEIK | –
103 | – | – | P1AH1062 (5D5 LM4) BCMA arm (antibody) chain 1: not shown chain 2: EIVLTQSPGTLSLSPGERATLSCKASQDIDDAINWYQQKPGQAPRLLIYDASLRATGIPDRFSGSGSGTDFTLTISRLEPEDFAVYYCQQSLRTPITFGQGTKLEIKRTVAAPSVFIFPPSDEQLKSGTASVVCLLNNFYPREAKVQWKVDNALQSGNSQESVTEQDSKDSTYSLSSTLTLSKADYEKHKVYACEVTHQGLSSPVTKSFNRGEC | –
21.6 | – | – | P1AG7409 BCMA arm (antibody, V domains shown) VH: QVQLVQSGAEVKKPGASVKVSCKASGYTFTNYWMHWVRQAPGQGLEWMGIIHPNSGSTNYNEKFQGRVTMTRDTSTSTVYMELSSLRSEDTAVYYCARGIYDYPFAYWGQGTLVTVSS VL: DIQMTQSPSSLSASVGDRVTITCRASESVSIHGTHLMHWYQQKPGKAPKLLIYAASNLESGVPSRFSGSGSGTDFTLTISSLQPEDFATYYCQQSIEDPYTFGGGTKVEIK | –
– | 3.2 | 14 | P1AG5060 (E04_VH1b/VL1f) (antibody, V domains shown) VH: QVQLVQSGAEVKKPGASVKVSCKASGYTFTNYWMHWVRQAPGQGLEWMGIIHPNSGSTNYNEKFQGRVTMTVDKSTSTVYMELSSLRSEDTAVYYCARGIYDYPFAYWGQGTLVTVSS VL: DIQMTQSPSSLSASVGDRVTITCRASESVSIHGTHLMHWYQQKPGKAPKLLIYAASSLQSGVPSRFSGSGSETDFTLTISSLQPEDFATYYCQQSIEDPYTFGGGTKVEIK | –
41.5 | – | – | P1AG7400 BCMA arm (antibody, V domains shown) VH: QVQLVQSGAEVKKPGASVKVSCKASGYTFTNYWMHWVRQAPGQGLEWMGIIHPNSGSTNYNEKFQGRVTMTRDTSTSTVYMELSSLRSEDTAVYYCARGIYDYPFAYWGQGTLVTVSS VL: DIQMTQSPSSLSASVGDRVTITCRASESVSIHGTHLMHWYQQKPGKAPKLLIYAASSLQSGVPSRFSGSGSETDFTLTISSLQPEDFATYYCQQSIEDPYTFGGGTKVEIK | –

Further lines, the binder ahead of its results:

Binder | EC50 [1] [nM] | Kd (human BCMA-Fc) [nM] | Kd (cynomolgus BCMA-Fc) [nM] | other results
P1AG5030 (54_VH1b/VL2a) (antibody, V domains shown) VH: EVQLVESGGGLVKPGGSLRLSCAASGFTFSNAWMDWVRQAPGKGLEWIAQITAKSNNYATYYAAPVKGRFTISRDDSKNTLYLQMNSLKTEDTAVYYCTDDGYHWGQGTLVTVSS VL: DIQMTQSPSSLSASVGDRVTITCRASEDIRNGLAWYQQKPGKAPKLLIYNANSLHTGVPSRFSGSGSGTDFTLTISSLQPEDFATYYCEDTSKYPYTFGQGTKLEIK | – | 1.3 | 2.2 | –
P1AG5014 (54_VH1a_Y292D/VL1a_L1_pGL) (antibody, V domains shown) VH: EVQLVESGGGLVKPGGSLRLSCAASGFTFSNAWMDWVRQAPGKGLEWVGQITAKSNNYATDYAAPVKGRFTISRDDSKNTLYLQMNSLKTEDTAVYYCTDDGYHWGQGTLVTVSS VL: AIQMTQSPSSLSASVGDRVTITCRASEDIRNDLGWYQQKPGKAPKLLIYNANSLHTGVPSRFSGSGSGTDFTLTISSLQPEDFATYYCEDTSKYPYTFGQGTKLEIK | – | 1.7 | 0.11 | –
P1AG5028 (54_VH2a/VL1a) (antibody, V domains shown) VH: EVQLLESGGGLVQPGGSLRLSCAASGFTFSNAWMDWVRQAPGKGLEWVSQITAKSNNYATYYADSVKGRFTISRDNSKNTLYLQMNSLRAEDTAVYYCTDDGYHWGQGTLVTVSS VL: AIQMTQSPSSLSASVGDRVTITCRASEDIRNGLAWYQQKPGKAPKLLIYNANSLHTGVPSRFSGSGSGTDFTLTISSLQPEDFATYYCEDTSKYPYTFGQGTKLEIK | – | 2.7 | 3.8 | –
Teclistamab BCMA arm (antibody, V domains shown) VH: QLQLQESGPGLVKPSETLSLTCTVSGGSISSGSYFWGWIRQPPGKGLEWIGSIYYSGITYYNPSLKSRVTISVDTSKNQFSLKLSSVTAADTAVYYCARHDGAVAGLFDYWGQGTLVTVSS VL: SYVLTQPPSVSVAPGQTARITCGGNNIGSKSVHWYQQPPGQAPVVVVYDDSDRPSGIPERFSGSNSGNTATLTISRVEAGDEAVYYCQVWDSSSDHVVFGGGTKLTVLG | – | – | – | binding result (human BCMA S30del): no binding; binding result (human BCMA R27P): no binding
P1AG5026 (E04_VH1b/VL1a) (antibody, V domains shown) VH: QVQLVQSGAEVKKPGASVKVSCKASGYTFTNYWMHWVRQAPGQGLEWMGIIHPNSGSTNYNEKFQGRVTMTVDKSTSTVYMELSSLRSEDTAVYYCARGIYDYPFAYWGQGTLVTVSS VL: DIQMTQSPSSLSASVGDRVTITCRASESVSIHGTHLMHWYQQKPGKAPKLLIYAASNLESGVPSRFSGSGSGTDFTLTISSLQPEDFATYYCQQSIEDPYTFGGGTKVEIK | – | 2.7 | 33 | –
P1AG5059 (E04_VH1a/VL1g) (antibody, V domains shown) VH: QVQLVQSGAEVKKPGASVKVSCKASGYTFTNYWMHWVRQAPGQGLEWMGIIHPNSGSTNYNEKFQGRVTMTRDTSTSTVYMELSSLRSEDTAVYYCARGIYDYPFAYWGQGTLVTVSS VL: DIQMTQSPSSLSASVGDRVTITCRASESVSIHGTHLMHWYQQKPGKAPKLLIYAASNLESGVPSRFSGSGSGTDFTLTISSLQPEDFATYFCQQSIEDPYTFGGGTKVEIK | – | 2.3 | 30 | –
P1AG5021 (E04_VH1b/VL1g) (antibody, V domains shown) VH: QVQLVQSGAEVKKPGASVKVSCKASGYTFTNYWMHWVRQAPGQGLEWMGIIHPNSGSTNYNEKFQGRVTMTVDKSTSTVYMELSSLRSEDTAVYYCARGIYDYPFAYWGQGTLVTVSS VL: DIQMTQSPSSLSASVGDRVTITCRASESVSIHGTHLMHWYQQKPGKAPKLLIYAASNLESGVPSRFSGSGSGTDFTLTISSLQPEDFATYFCQQSIEDPYTFGGGTKVEIK | – | 2.8 | 35 | –
P1AG5034 (E04_VH1b/VL1e) (antibody, V domains shown) VH: QVQLVQSGAEVKKPGASVKVSCKASGYTFTNYWMHWVRQAPGQGLEWMGIIHPNSGSTNYNEKFQGRVTMTVDKSTSTVYMELSSLRSEDTAVYYCARGIYDYPFAYWGQGTLVTVSS VL: DIQMTQSPSSLSASVGDRVTITCRASESVSIHGTHLMHWYQQKPGKAPKLLIYAASSLQSGVPSRFSGSGSGTDFTLTISSLQPEDFATYYCQQSIEDPYTFGGGTKVEIK | – | 3.2 | 32 | –
P1AG5043 (E04_VH1a/VL1d) (antibody, V domains shown) VH: QVQLVQSGAEVKKPGASVKVSCKASGYTFTNYWMHWVRQAPGQGLEWMGIIHPNSGSTNYNEKFQGRVTMTRDTSTSTVYMELSSLRSEDTAVYYCARGIYDYPFAYWGQGTLVTVSS VL: DIQMTQSPSSLSASVGDRVTITCRASESVSIHGTHLMHWYQQKPGKAPKLLIYAASNLQSGVPSRFSGSGSETDFTLTISSLQPEDFATYYCQQSIEDPYTFGGGTKVEIK | – | 2.6 | 14 | –
